Source: patent US20210246218A1 (LYVGEN BIOPHARMA SUZHOU, published 2021)
“And” between values parts separate entries of the source, which are not always exact repeats. Equal entries are not always repeated.

How the values were obtained:
[1] = target: T1, huCD137-C6His (human, UniProt Q07011 24-186); assay: SPR (Biacore T200), huCD137-C6His immobilised, antibody as analyte, 1:1 model, 25 °C
T1 construct: Immobilised by amine coupling on the sensor chip; also called human CD137 protein (Biacore ligand); not shown: C-terminal 6xHis tag by the name C6His
Method: Flow cells of a CMS sensor chip (GE Healthcare Life Sciences) were activated with freshly mixed 50 mmol/L NHS and 200 mmol/L EDC for 420 seconds (10 μL/min). Then, huCD137-C6His in 10 mmol/L NaAC (pH 5.0) was injected onto the activated flow cell (10 μL/min) with HBS-EP (10 mM HEPES, 150 mM NaCl, 3 mM EDTA and 0.05% P20, pH 7.4) as the running buffer. The remaining active coupling sites were blocked with a 420 second injection of 1 mol/L ethanolamine The measurement was performed under 25° C., and HBS-EP was used as the running buffer. An injection of a tested analyte and surface regeneration of the CMS sensor chip were included in each running cycle. […] Buffer flow was maintained for approximately 180 seconds for dissociation. To remove the tested antibodies, an injection of 10 mM glycine-HCl for approximately 30 seconds was used for regeneration. The above procedures were repeated for each concentration of serially diluted tested antibody. The raw data of the surface plasmon resonance experiments were evaluated using Biacore T200 evaluation software 3.1 with a 1:1 binding model. Flow cell 1 was used as the reference flow cell.

[2] = target: T2, Ly051; assay: ELISA, clone 3712-IgG1v coated, CD137 protein titrated (EC50 is a concentration of the CD137 protein); curve only begins to rise: about 0.42 at 100000 ng/mL, no plateau, fit marked ~
T2 chain: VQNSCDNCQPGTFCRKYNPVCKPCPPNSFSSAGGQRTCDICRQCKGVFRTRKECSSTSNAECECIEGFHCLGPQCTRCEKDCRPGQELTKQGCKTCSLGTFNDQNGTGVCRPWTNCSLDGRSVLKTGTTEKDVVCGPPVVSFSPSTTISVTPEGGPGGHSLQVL
Method: The plate was decanted and washed once; assay diluent was added 200 μL/well. After one-hour incubation at room temperature, the plate was washed with PBST one time. CD137 receptor human/mouse chimeras were diluted in assay diluent to 100 or 10 μg/mL, and then a 4-fold serial dilution in assay diluent for 11 points to final concentrations of 100000, 25000, 6250, 1562.5, 390.63, 97.66, 24.41, 6.10, 1.53, 0.38 and 0.095 ng/mL or 10000, 2500, 625, 156.25, 39.06, 9.77, 2.44, 0.61, 0.15, 0.038 and 0.0095 ng/mL. The diluted CD137 receptor was added to the assay plate, 50 μL/well, in duplicate. The plate was incubated one hour at room temperature and then washed three times with PBST. Goat anti-human IgG-H+L HRP conjugated at 1:100,000 20 dilution was added to the plate at 100 μL/well. The plate was then incubated one hour at room temperature followed by washing with PBST four times. The TMB substrate solution was added at 100 μL/well. The color was allowed to develop for 15 minutes, and was stopped with 100 μL/well 2N H2SO4. Absorbance at 450 nm and 620 nm was determined by a Tecan F200 Pro reader.

[3] = target: T3, human FcγRIIB-Ile232 on CHO-K1 cells (human, UniProt P31994 43-310); assay: flow cytometry on CHO-huFcγRIIB cells, anti-human Fc F(ab')2
T3 construct: whole, on cells; also called CHO-K1-huFcγRIIB-Ile232; CHO-K1-huFcγRIIB
T3 sequence (looked up): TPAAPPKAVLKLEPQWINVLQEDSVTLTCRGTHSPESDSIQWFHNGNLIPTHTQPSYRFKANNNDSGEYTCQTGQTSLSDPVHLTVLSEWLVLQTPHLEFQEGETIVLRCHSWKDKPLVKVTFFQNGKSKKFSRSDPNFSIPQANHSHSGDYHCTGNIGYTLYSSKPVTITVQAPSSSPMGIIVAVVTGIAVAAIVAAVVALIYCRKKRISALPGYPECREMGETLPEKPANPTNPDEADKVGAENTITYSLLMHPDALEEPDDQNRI
Method: The plate was mixed and incubated in the dark for 2 hours at 4° C.

[4] = target: T4, cynomolgus monkey CD137 on cells (cynomolgus monkey, UniProt A9YYE7 24-254); assay: flow cytometry on CHO-cynomolgus monkey CD137 cells, PE anti-human IgG-Fc
T4 construct: whole, on cells; also called CHO-cynomolgus monkey CD137
Method: (§1) CHO cells over-expressing human or cynomolgus monkey CD137 and CHO parental cells were harvested by centrifugation at 1000 g for 3 minutes. The cells were resuspended in ice cold assay buffer at 2*10\hat{ }6/mL and transferred to 96-well V-bottom plate with 100 μL/well. […] The plate was mixed and incubated in the dark for 2 hours at 4° C. The cells were washed 3 times by centrifugation at 1000 g for 3 min and resuspended in ice cold assay buffer containing goat F(ab′)₂ anti-human IgG-Fc (PE), 100 μL/well. The plate was incubated in the dark for another 1 hour at 4° C. The cells were washed 2 times by centrifugation at 1000 g for 3 min and resuspended in ice cold assay buffer containing 2% PFA. The cells were then subjected to the flow cytometer immediately.
(§2) Mean fluorescence intensity (MFI) was calculated from the total cell population in the FCM experiments. Graphpad 7.0, “[Agonist] vs. response—Variable slope (four parameters)” was used to plot the binding MFI in dose response and to calculate FCM binding EC₅₀ values.

[5] = target: T5, human CD137 on cells (human, UniProt Q07011 24-255); assay: flow cytometry on CHO cells over-expressing human CD137; average, n=6
T5 construct: whole, on cells; also called CHO-human CD137; CHO cells over-expressing human CD137
Method: as §1, §2

T1 sequence (Q07011 24-186): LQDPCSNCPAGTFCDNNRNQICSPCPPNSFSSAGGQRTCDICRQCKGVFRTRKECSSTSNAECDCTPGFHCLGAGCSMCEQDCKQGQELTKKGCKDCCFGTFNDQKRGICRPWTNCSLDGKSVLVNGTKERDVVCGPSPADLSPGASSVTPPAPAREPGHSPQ
T5 sequence (Q07011 24-255): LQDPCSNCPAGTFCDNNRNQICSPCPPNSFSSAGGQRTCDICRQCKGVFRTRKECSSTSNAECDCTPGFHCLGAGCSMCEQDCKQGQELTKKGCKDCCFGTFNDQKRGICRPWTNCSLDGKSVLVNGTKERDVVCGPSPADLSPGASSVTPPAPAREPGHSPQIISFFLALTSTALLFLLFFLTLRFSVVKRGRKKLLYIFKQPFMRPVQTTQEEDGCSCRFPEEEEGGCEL
T4 sequence (A9YYE7 entry or part of it): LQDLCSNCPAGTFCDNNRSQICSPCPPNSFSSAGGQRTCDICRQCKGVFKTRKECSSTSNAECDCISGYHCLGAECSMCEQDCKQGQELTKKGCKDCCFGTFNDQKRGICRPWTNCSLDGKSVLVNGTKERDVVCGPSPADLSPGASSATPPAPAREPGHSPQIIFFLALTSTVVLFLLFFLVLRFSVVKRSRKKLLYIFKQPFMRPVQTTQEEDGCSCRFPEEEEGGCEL

B1: Clone 3712-IgG1v (IgG1v/kappa) (antibody)
heavy: QVQLVQSGAEVKKPGASVKVSCKASGYTFAGFEMHWVRQAPGQGLEWMGAIDPKTGGTDYNQKFKDRVTMTRDTSISTAYMELSRLRSDDTAVYYCARDLGYFDVWGQGTLVTVSSASTKGPSVFPLAPSSKSTSGGTAALGCLVKDYFPEPVTVSWNSGALTSGVHTFPAVLQSSGLYSLSSVVTVPSSSLGTQTYICNVNHKPSNTKVDKKVEPKSCDKTHTCPPCPAPELLGPSVFLFPPKPKDTLMISRTPEVTCVVVDVEHEDPEVKFNWYVDGVEVHNAKTKPREEQYNSTYRVVSVLTVLHQDWLNGKEYKCKVSNKALPAPIEKTISKAKGQPREPQVYTLPPSREEMTKNQVSLTCLVKGFYPSDIAVEWESNGQPENNYKTTPPVLDSDGSFFLYSKLTVDKSRWQQGNVFSCSVMHEALHNHYTQKSLSLSPGK
light: DIQMTQSPSSLSASVGDRVTITCRASQDIRSNLNWYQQKPGGAVKLLIYYTSRLHSGVPSRFSGSGSGTDYTLTISSLQPEDFATYFCQQSEKLPRTFGGGTKVEIRRTVAAPSVFIFPPSDEQLKSGTASVVCLLNNFYPREAKVQWKVDNALQSGNSQESVTEQDSKDSTYSLSSTLTLSKADYEKHKVYACEVTHQGLSSPVTKSFNRGEC
notes: copies: 2 + 2
B1 was tested, and the Kd [1] was 18.9 nM, the koff [1] was 0.0138 s⁻¹ and the kon [1] was 730000 M⁻¹ s⁻¹. The EC50 [2] was roughly 466 µg/mL, the binding result [3] was “binds” and the “EC50 (read off the curve)” value [4] was roughly 0.03 µg/mL. The EC50 [5] was 0.35 nM and 0.0497 µg/mL.
